Tests used:
[1] = target: c-Met (hepatocyte growth factor receptor, HGFR), endogenous on tumour cell lines (UniProt P08581); assay: cell-based or functional assay
[2] = target: c-Met (hepatocyte growth factor receptor, HGFR), endogenous on tumour cell lines (UniProt P08581); assay: apparent Kd, flow cytometry on H292 cells (endogenous cMet)
[3] = target: c-Met (hepatocyte growth factor receptor, HGFR), endogenous on tumour cell lines (UniProt P08581); assay: apparent Kd, flow cytometry on SNU-5 cells (endogenous cMet)

c-Met (hepatocyte growth factor receptor, HGFR), endogenous on tumour cell lines, sequence (P08581 25-1390 limits assumed): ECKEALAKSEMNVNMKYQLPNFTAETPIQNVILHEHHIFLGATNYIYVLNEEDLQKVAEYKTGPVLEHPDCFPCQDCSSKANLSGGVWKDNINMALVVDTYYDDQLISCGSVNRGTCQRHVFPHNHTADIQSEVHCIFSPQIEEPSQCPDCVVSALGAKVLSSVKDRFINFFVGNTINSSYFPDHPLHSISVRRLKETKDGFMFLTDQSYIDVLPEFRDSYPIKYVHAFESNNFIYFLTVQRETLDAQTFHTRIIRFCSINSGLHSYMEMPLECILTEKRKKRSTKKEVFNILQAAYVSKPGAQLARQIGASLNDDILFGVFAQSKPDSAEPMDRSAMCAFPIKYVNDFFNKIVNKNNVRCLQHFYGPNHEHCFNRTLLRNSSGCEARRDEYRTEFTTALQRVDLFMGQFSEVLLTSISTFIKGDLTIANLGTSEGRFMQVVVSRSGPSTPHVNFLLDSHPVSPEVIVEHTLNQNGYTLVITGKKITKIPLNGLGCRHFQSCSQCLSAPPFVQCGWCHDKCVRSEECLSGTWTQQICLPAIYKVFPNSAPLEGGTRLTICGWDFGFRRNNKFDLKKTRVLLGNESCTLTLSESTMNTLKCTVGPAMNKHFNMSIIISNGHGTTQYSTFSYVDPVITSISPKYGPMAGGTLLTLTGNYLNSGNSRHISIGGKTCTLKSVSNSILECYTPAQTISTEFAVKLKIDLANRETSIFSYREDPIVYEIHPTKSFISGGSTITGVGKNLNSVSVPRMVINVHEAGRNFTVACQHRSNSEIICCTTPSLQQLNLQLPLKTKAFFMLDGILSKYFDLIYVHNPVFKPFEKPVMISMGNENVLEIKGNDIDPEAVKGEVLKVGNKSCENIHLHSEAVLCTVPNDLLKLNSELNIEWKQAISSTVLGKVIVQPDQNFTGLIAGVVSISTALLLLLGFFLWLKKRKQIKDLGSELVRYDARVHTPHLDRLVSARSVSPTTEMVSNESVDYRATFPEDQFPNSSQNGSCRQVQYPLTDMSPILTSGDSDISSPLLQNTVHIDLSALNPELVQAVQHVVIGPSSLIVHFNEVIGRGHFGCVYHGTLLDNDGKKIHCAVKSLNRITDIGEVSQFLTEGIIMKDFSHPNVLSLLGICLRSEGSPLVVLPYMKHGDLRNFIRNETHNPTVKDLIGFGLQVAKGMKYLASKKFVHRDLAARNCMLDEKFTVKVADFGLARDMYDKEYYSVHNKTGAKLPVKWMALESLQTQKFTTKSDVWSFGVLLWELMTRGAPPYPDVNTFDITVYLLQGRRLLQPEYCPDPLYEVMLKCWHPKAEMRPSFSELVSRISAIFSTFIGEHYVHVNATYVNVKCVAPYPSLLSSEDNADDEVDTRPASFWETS

Mean Object Fluorescence (Internalized), 5 Hours 37° C., EBC-1, 0.3 nM [1]: 2690
Mean Object Fluorescence (Internalized), 5 Hours 37° C., EBC-1, 1.9 nM [1]: 3050
Mean Object Fluorescence (Internalized), 5 Hours 37° C., EBC-1, 12 nM [1]: 1990
Mean Object Fluorescence (Internalized), 5 Hours 37° C., EBC-1, 70 nM [1]: 2600
Mean Object Fluorescence (Internalized), 5 Hours 37° C., HT-29, 0.3 nM [1]: 2750
Mean Object Fluorescence (Internalized), 5 Hours 37° C., HT-29, 1.9 nM [1]: 2360
Mean Object Fluorescence (Internalized), 5 Hours 37° C., HT-29, 12 nM [1]: 2330
Mean Object Fluorescence (Internalized), 5 Hours 37° C., HT-29, 70 nM [1]: 2290
Kd [2]: > 50 nM
Kd [3]: > 50 nM
Substance: palivizumab (v22277), unconjugated anti-RSV antibody

From US20250222128A1, “ANTIBODY DRUG-CONJUGATES TARGETING C-MET AND METHODS OF USE THEREOF” (Zymeworks BC Inc., priority 2022, published 2025)
